In PMC11507940 (bioRxiv, 2024):

Assays:
[1] = target: Human recombinant fibroblast activation protein alpha (human) (UniProt Q12884); test: cross-linking + other: mass photometry
[2] = target: Biotinylated dipeptidyl peptidase IV (Homo sapiens, UniProt P27487, biotin); test: BLI
Chain of Biotinylated dipeptidyl peptidase IV (P27487 39-766): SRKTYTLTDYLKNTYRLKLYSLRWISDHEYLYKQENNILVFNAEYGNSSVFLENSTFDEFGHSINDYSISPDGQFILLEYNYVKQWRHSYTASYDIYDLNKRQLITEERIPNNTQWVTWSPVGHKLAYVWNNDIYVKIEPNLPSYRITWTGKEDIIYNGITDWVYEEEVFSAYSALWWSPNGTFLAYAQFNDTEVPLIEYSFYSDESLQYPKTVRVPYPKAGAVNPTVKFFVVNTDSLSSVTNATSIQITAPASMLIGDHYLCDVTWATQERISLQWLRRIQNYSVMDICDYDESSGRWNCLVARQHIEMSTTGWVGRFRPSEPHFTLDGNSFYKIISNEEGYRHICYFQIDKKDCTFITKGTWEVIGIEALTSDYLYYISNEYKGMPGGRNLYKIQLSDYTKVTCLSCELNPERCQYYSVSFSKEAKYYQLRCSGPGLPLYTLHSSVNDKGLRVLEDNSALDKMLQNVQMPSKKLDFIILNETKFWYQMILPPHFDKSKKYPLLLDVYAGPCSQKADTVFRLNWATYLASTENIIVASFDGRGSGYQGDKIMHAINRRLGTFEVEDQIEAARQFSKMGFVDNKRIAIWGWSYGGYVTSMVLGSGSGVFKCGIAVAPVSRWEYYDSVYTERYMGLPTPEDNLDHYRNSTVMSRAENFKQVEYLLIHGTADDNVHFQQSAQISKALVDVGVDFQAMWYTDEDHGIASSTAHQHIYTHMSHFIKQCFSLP

Chain of Human recombinant fibroblast activation protein alpha (human) (Q12884 39-757): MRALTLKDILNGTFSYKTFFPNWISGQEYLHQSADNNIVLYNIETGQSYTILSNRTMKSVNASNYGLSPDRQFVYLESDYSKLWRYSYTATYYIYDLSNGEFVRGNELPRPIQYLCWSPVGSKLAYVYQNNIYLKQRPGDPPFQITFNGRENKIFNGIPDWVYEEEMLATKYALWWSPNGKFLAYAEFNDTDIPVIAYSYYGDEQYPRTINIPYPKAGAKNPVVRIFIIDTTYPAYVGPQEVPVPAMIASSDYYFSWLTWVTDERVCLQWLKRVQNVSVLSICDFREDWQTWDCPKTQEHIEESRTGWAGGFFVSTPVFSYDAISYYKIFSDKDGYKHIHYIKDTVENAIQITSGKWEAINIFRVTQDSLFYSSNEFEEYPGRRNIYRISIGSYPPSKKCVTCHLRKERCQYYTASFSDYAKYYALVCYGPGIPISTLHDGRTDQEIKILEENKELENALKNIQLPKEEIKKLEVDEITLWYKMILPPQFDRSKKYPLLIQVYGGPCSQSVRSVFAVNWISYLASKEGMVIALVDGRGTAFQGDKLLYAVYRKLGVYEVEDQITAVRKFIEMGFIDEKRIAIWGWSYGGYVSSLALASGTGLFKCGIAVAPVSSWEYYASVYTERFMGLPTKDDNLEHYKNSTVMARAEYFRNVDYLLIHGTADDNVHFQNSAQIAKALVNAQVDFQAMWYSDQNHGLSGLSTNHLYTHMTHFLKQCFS

stoichiometry N [1] | binding result [2] | Binder
1 |  | SUMO-I3 (single domain antibody I3 fused to an N-terminal 6X His-SUMO-FLAG tag) (VHH) VHH: EVQLVESGGGLVQPGGSLRLSCAASGFTFSSYAMSWVRQAPGKGLEWVSAINSGGGSTSYADSVKGRFTISRDNAKNTLYLQMNSLKPEDTAVYYCAKARTGWSLAVPSFGSWGQGTQVTVSS
 | no binding (tested: 10 μM) | MBP-I3 (single domain antibody I3 with an N-terminal MBP fusion and a C-terminal 6X His-tag) (VHH) VHH: EVQLVESGGGLVQPGGSLRLSCAASGFTFSSYAMSWVRQAPGKGLEWVSAINSGGGSTSYADSVKGRFTISRDNAKNTLYLQMNSLKPEDTAVYYCAKARTGWSLAVPSFGSWGQGTQVTVSS
